For 13 sequences, protein production results are on record in a protein production outcome set (Wang et al. 2014).

This series can be described thus: label from the status in PepcDB records.
In the case of “MSAAPGLLHQELSCPLCLQLFDAPVTAECGHSFCRACLGRVAGEPAADGTVLCPCCQAPTRPQALSTNLQLARLVEGLAQVPQGHCEEHLDPLSIYCEQDRALVCGVCASLGSHRGHRLLPAAEAHARLKTQLPQQKLQLQEACMRKEKSVAVLEHQLVEVEETVRQFRGAVGEQLGKMRVFLAALEGSLDCEAERVRGEAGVALRRELGSLNSYLEQLRQMEKVLEEVADKPQTEFLMKYCLVTSRLQKILAESPPPARLDIQLPIISDDFKFQVWRKMFRALMPALEELTFDPSSAHPSLVVSSSGRRVECSEQKAPPAGEDPRQFDKAVAVVAHQQLSEGEHYWEVDVGDKPRWALGVIAAEAPRRGRLHAVPSQGLWLLGLREGKILEAHVEAKEPRALRSPERRPTRIGLYLSFGDGVLSFYDASDADALVPLFAFHERLPRPVYPFFDVCWHDKGKNAQPLLLVGPEGAEA”, the protein production result is “failed”.
Turning to “MSAARQGVAQARRIVVKVGSSSLTTAAGGLDADRVDALVDVLAKSRSGGEKEIVLVSSGAIAAGLAPLGLRRRPKDLARQQAAASVGQGLLVARYTASCARHGIRVGQVLLTSDDTSRRAHHRNASRTLDKLLAMGALPVVNENDTVATDEIRFGDNDRLAALVAHLVRADLLVLLSDVDGVYDGDPSKPGTSRVAQVHGPQDLAHVEIGSAGRAGVGTGGMVTKIEAARIAAAAGIPVVLTSAVHAADALAGRDTGTYFHPTGKRSADRLLWLQHASTPQGALTLDDGAVRAVVERRKSLLPAGIAAVEGEFTAGDPVELRDSEGRAVARGLVSFDAKEIPQLLGRSTRELARELGPAYEREVVHRDDLVLLQP”, the protein production entry was “failed”.
In the case of “MSADGSEYGRYFEQLQKVNLTVRLGDTGSFDGTAAITSLKGSLAWLELFGAEQPPPNTLSEGAEVSVSVWTGGALCRCDGRVETLRDDRQFAIRLVGRVRELQRREYF” it was “not failed”.
In the case of “MSADYPRDLIGYGNNPPHPHWPGDARIALSFVLNYEEGGERCVLHGDKESEAFLSEMVAAQPLQGVRHMSMESLYEYGSRAGVWRLLKLFKRRNVPLTVFAVAMAAQRNPEVIRAMVADGHEICSHGYRWIDYQYMDEAQEREHMLEAIRILTELTGQRPVGWYTGRTGPNTRRLVMEEGGFLYDSDTYDDDLPYWDPASTAEKPHLVIPYTLDTNDMRFTQVQGFNNGEQFFQYLKDAFDVLYEEGATAPKMLSIGLHCRLIGRPARMAALERFIQYAQSHDKVWFARREDIARHWHREHPFQETEA” it was “not failed”; in that of “MSAESASQIPKGQVDLLDFIDWSGVECLNQSSSHSLPNALKQGYREDEGLNLESDADEQLLIYIPFNQVIKLHSFAIKGPEEEGPKTVKFFSNKEHMCFSNVNDFPPSDTAELTEENLKGKPVVLKYVKFQNVRSLTIFIEANQSGSEVTKVQKIALYGST”, “not failed”; in that of “MSAGKIDVHGFEKETLFFKNIASGSKGNCTLIWDSTDLIVIDLGITMKKFRDSIKSLDLAGRSISLFISHEHSDHIGGVPTTSKYVDMDVYMRPALSGSFRRKTYEMDGSLVVGNFEIRAFEIPHDAADPVGFSVLWHNRKISVVSDLGKVTDRVIESIRNSDILAFESNHDVEMLRTGSYPEALKRRILSDHGHLSNEQSAEAISRVATDDMRIILTHLSQENNRPEIALNEVKSYLENRNVRYRSIETADQYTGSSLYTLER”, “failed”.
In the case of “MSAIRSRRSLLIPVLIVALLHVYIGVRLLPGLPVPMIVHSLAVLWLIASTLLMPAALMARRLSTPWADQLSWVGMMAMGFFSSLLVLTIARDLFLLVTLAIGWRPPGLTGYSALGAIALALAVTVIGFFQARGLAKVKEVDVPIANLPDALHGFTIAQISDIHVGPTIKRPYIDRIVDRVNSLAPDAIAITGDLVDGSVRELSAHTAPFARLSARHGAYVVTGNHEYYSGAEAWIVELRRLGLRVLMNEHVVVERGDASLVLGGVTDFTAGGFIESHRSDPVQALDGAPRDAAARVLLAHQPRTAPAAAAAGFDLQLSGHTHGGQFWPWNLFVPMQQPYVHGLNRHDNLWVYVSRGTGYWGPPKRFGAPSEITLVRLVRG” it was “failed”.
Consider “MSALDIPVTPENYTVWYEYFAQSNLDLNRAIDGFLANNVVFTKEVNTSLYKNFIQEKSPEVIENVQIETQILINSLISKITQLNQGTEAFSNTLADFGLQLQSSPDVNTLNQLVDGVIDEMQNLLVNNQTMEQSLNAMGQEVQNLKTEMENLSLAAMTDQLTSLHNRRAYEIAIQDHIHRAEEQHTRCSLLLIDIDRFKVFNDTYGHQVGDKVLAYVALALKQCVRGDDFVARYGGEEFVVLLPNTHFHDALQVAETLRGRISERRLAIGKDKKLSLGAITVSIGLASLQKGDDAETLFSRADKALYEAKSDGRNCVRG”, for which the protein production entry is “failed”.
In the case of “MSANDKQYISYNNVHQLCQVSAERIKNFKPDLIIAIGGGGFIPARILRTFLKEPGVPTIRIFAIILSLYEDLNSVGSEVEEVGVKVSRTQWIDYEQCKLDLVGKNVLIVDEVDDTRTTLHYALSELEKDAAEQAKAKGIDTEKSPEMKTNFGIFVLHDKQKPKKADLPAEMLNDKNRYFAAKTVPDKWYAYPWESTDIVFHTRMAIEQGNDIFIPEQEHKQ”, the protein production entry is “failed”.
As for “MSAPTTFSVALHNETATAQLMADLALLVGPGDVITLTGDLGAGKTAAARAMIRYLADDEALEVPSPTFTLVQGYELPPFPVMHADLYRVEDESELEEIGLSPLPDATLVLIEWPERAPSALPEDRIDIALTHRPALGSNARAADITGYGKSAAQVARLKALREFLDASGYLDAMRRRMAGDASTRSYARLLRDDEIVILMNFPQRPDGAALYNGKSYSAAVHLAENVKPFVAIDEGLRAQGISAPAIHHADLDHGFLISEDFGSEGVIEGNPPRPIPERYEAATDVLAVLHGKTLPETLPLDGQSYAIPVFDTEAMLIEIGLMPEWYLPDRNAPLSEPKRAEFFAMWRELLKKPLAAPRTWIIRDYHSPNLIWLGMRTGIERVGVIDFQDTVLGPQSYDVVSLLQDARIDVPENLELTLLSRYIKARRAGDASFDPAGFAELYAIMSAQRNTRLLGTFARLNRRDGKPHYLRHQPRIWTYLQRSLAHPALSHLRDWYLANVPPPQRPSQEPAPEPPQGLEHHHHHH”, the entry is “not failed”; as for “MSARSLRQEALNLPNAITATRIALIPVFLWFTFYESRVDSFIAAVLYAVTGATDFLDGWVARRKNLVTVIGKFLDPLADKLIVMAALVMLVHLGRVAAWVCIVVLAREFIVTGLRTIAMSEGIVIAAGQEGKHKTAFQVAGITFLLLHYTYPIDAIFFSFDLDANRVGTWLVYISLFFSVWSAVSYFANFIRAVYRREGEAQAAEDVRPNRRTSRG”, “failed”; as for “MSASAPQAHGPAATGTVTTDVPARLDRLPWSRWHWMIVIGLGTVWILDGLEVTTVGNIAGRLSEDGSGLSITSAQVTGVAAALYVAGACAGALFFGWLTDRFGRKKLFMVTLVVYLSATALTALSFNSWWFFTFRFLTGFGIGGEYAAINSAIDELIPAKYRGRVDLIINGSYWLGAIGGALLSIVMLDTSIFPKDLGWRLTFALGVVLGLVILLVRRHVPESPRWQFIHGRGEDAEALVSSVEREIEQEKGEPLPRAESEITIEQRKSIGFGLIAKTVFGRYPKRAVLGLALFIGQAFLYNAITFGFGAILTTFYDVPTGGTGYYFAVIAAGNFIGPLLLGKLFDTVGRRIMIASTYLLSGLLLFGTAWLFDRGSLSAMTLTACWCAVLFFASAGASSAYLTVSEVFPMETRAMAIAFFYALGTAAGGISGPLVFADLTESGVVGDTVLAFQIGAGLMCAAGLVAAFLAVNAERRSLEDIAEPLSVAQTTAPAPASASGT”, “failed”.
As for “MSASRRSGTTDELGPDGPDPERDGPDGADLLAALLDGMDAALCAFDADGVVTHWNREAERILGWTAAEAVGRRGFAGWAVRTADAEDVEARLMTAMQAPGRQVHEFALLTKDGGRVLVRTQSAAVHGPDGKPAGVYCAFSEVHTQIDLERSIALSEALFEDASWGVVLVDADLRPAVVNAHAARALGTGRTTVLGRPLGDLLSQGVEELESALTHVLAEGAPPAPAEMWVSVRTAEGEKRRCWRSGFLRLASPLAEEPVPLGVGWLFQDITEAKQTEQEAALLRFRTNQLHRAARAAAECEDPGEAATVHLDFSLAGFADHALIDRVAGGPVADGDRDGDGPPVRLVRAADTPSGAPGPSLLVGKAELPVWYAEGHPALQCVERAGSVRASAGVSDAERAREWAISRQWPGDAVHALCAVLRSRGRTLGVVTFLRGAGRSQFERADAVYAEDVAVRIAAALDLAGLAGLAGPAGER”, the entry is “failed”.
